Patent US20160280788A1, “USE OF ANTIBODIES AGAINST ICAM-1 IN THE TREATMENT OF PATIENTS WITH RELAPSED CANCER” (BioInvent International AB, priority 2010, published 2016)

Key:
[1] = system: HUVEC and HMVEC endothelial cells; assay: PCD in normal endothelial cells; type: cell-based; details: resting or activated (IFN-γ) cells
Description: Target cells were seeded in 96-well culture plates at a density of 2×10^6 cells/mL culture medium. Titrated concentrations of IgG1 B11 or different negative and positive control antibodies were added to the cells, in the absence or presence of anti-human Fab fragment (Jackson ImmunoResearch) for cross-linking. The cells were then incubated for 16 hours at 37° C. in a humidified atmosphere of 5% CO2. The cells were harvested and stained for Annexin V-488/Propidium Iodide (Invitrogen, Sweden) and analysed using flow cytometer (FACS Calibur, BD Bioscience).

mouse FcγRIV = biological target: T1, mouse FcγRIV (Mus musculus, UniProt A0A0B4J1G0); assay: Biacore binding of BI-505 isotype variants to mouse FcγRIV
T1 construct: made in house; host or cells: HEK293E (transient)
T1 sequence (A0A0B4J1G0 21-249): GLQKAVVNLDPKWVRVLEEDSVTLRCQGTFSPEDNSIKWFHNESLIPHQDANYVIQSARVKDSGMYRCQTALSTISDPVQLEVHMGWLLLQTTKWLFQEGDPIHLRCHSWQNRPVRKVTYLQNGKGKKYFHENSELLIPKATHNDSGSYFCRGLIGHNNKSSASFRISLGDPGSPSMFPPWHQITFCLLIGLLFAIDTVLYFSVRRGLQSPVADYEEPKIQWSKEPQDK
Description: His-tagged human FcγRIIIa or mouse FcγRIV were expressed transient in adherent HEK293E cells, purified using Ni-NTA chromatography and characterized using SDS-PAGE and/or Biacore. Surface plasmon resonance (SPR) measurements were perfomed using a Biacore 3000 instrument. Goat α-human-F(ab)′2 F(ab)′2 fragment (Jackson laboratories) was immobilised with a CM-5 chip using a standard amine coupling protocol. IgG1 B11, Iga4 B11, or 297Q B11 were diluted to 15 and 60 μg/mL respectively and added to the surface at […] for 3 min. His tagged human FcγRIIIa or mouse FcγRIV were pre-incubated with an α-HIS antibody (R&D Systems) at a 2:1 molar ratio before addition to the chip surface, […], 1 min. After each cycle the surface was regenerated twice with glycine buffer pH 1.7.

[2] = system: ICAM-1 expressing tumor cell lines; assay: Complement-dependent cytotoxicity in tumor cell lines; type: cell-based; details: panel of ICAM-1 expressing tumor cell lines; human serum
Description: (§1) Target cells were harvested and incubated in RPMI medium with antibodies at 5 μg/mL or at titrated concentrations between 0.01-100 μg/mL for 60 min on ice. Cells were thereafter washed and resuspended in cold medium before dispension into flow cytometry tubes. Treatments were performed in triplicates. Human serum, normal or heat-inactivated, (Sigma, Sweden) was added to tubes and the samples were incubated for 2 h at 37° C. After completed incubation ToPo-Pro-3 was added at a final concentration of 0.3 μM and cells were analyzed for membrane permeabilization using flow cytometry.

[3] = Mouse serum antibody levels by ELISA at end of xenograft experiment; type: in vivo; details: mouse serum at end of experimentation
Description: We next performed a dose-titration experiment to establish IgG B11 in vivo potency and the minimal dose achieving maximal anti-tumor activity, using the scid/ARH-77 model system. […] Mouse serum antibody trough concentrations were determined by ELISA at the end of experimentation. Trough antibody concentrations were then plotted against percent of maximal in vivo anti-tumour activity, and against percent of maximal ICAM-1 receptor occupancy and tumour cell PCD at corresponding antibody concentrations in vitro (FIGS. 3C, 3D, 3E, 3F and 3G). Strikingly, a near perfect correlation between antibody concentration and in vitro tumour cell receptor occupancy, in vitro tumor cell PCD, and in vivo anti-tumour activity was observed, consistent with ICAM-1 dependent direct cell cytotoxicity underlying in vivo anti-tumour activity.

ARH-77 cells = assay: Disseminated scid/ARH-77 model of multiple myeloma; type: in vivo, scid mice; details: i.v. on Days 7, 10, 13, 16; antibody 2 mg/kg, bortezomib 0.5 mg/kg; vs control
Description: ARH-77 cells or RPMI-8226 were injected intraveniously into the SCID mice. (FIG. 6A) ARH-77 model. Animals received intravenous injections with antibody at 2 mg/kg or bortezomib (Velcade) at 0.5 mg/kg on Days 7, 10, 13, and 16 (as indicated by arrows in the graph). (FIG. 6B) RPMI-8226-model. BI-505 or control mAb was administered i.v at 2 mg/kg, twice weekly for 8 weeks, bortezomid, at 1 mg/kg, once weekly for 8 weeks, lenalidomide p.o with 2 mg/kg for 2 cycles consisting of 5 days of treatment and 2 days of wash out, melphalan i.v at 3 mg/kg, once weekly for 8 weeks, and dexamethasone (DXH) at 6 mg/kg/inj 3 times/week for 2 consecutive weeks. There were 6-10 mice per treatment group. Statistical significance was calculated using Log-rank Graphpad Prism software and determined at ***p<0.001. (FIG. 6C) To study the ICAM-1 level on human cells, the cells from different organs were stained and gated for CD38+/mCD45−/BI-505+. Left panel indicates the percentage of BI-505 positive cells in CD38+/mCD45 population and right panel the mean fluorescent intensity of the positive cells.
The anti-myeloma effect of BI-505 was examined in a disseminated model of multiple myeloma. The early and advanced disseminated model of multiple myeloma was performed at Oncodesign, Dijon, France. Briefly: 1×10^6 (early) or 5×10^6 (advanced) ARH-77 tumor cells in 200 μL of RPMI 1640 were injected intravenously (i.v) into the caudal vein of female scid mice (D0). Tumor cell injections were performed twenty four to forty eight hours after a whole body irradiation of mice (1.8 Gy, ^60Co, INRA, BRETENNIERES). The treatment was started at D5 (RPMI-8226 model) or D7 ([…] model) except alkeran which was administered at D10. B11 or control mAb was administered i.v. at 2 mg/kg, twice weekly for 8 weeks, bortezomib, at 1 mg/kg, once weekly for 8 weeks, lenalidomide p.o with 2 mg/kg for 2 cycles consisting of 5 days of treatment and 2 days of wash out, melphalan i.v. at 3 mg/kg, once weekly for 8 weeks and dexamethasone at 6 mg/kg, injected 2 consecutive weeks.
The disseminated model of scid/ARH-77 is a well-established experimental model that resembles human multiple myeloma disease progression and disease manifestation in many respects (33). We utilized this model to further characterize IgG B11 anti-myeloma activity (FIG. 6A). Intravenous injection of irradiated scid mice with 1×10^6 ARH-77 cells was previously shown to result in their dissemination and establishment in mouse bone-marrow, and resulting osteolytic bone-lesions and hypercalcemia, and ultimately, in animal paralysis or difficulty of breathing at which time animals were immediately sacrificed. […]

[4] = system: HUVEC, HMVEC or peripheral blood B cells; assay: CDC of normal ICAM-1 expressing cells; type: cell-based
Description: as §1

B1: IgG B11: fully human ICAM-1 antibody isolated from the n-CoDeR library; VH/VL sequences in FIG. 15 (SEQ ID NOs 8, 10) (antibody, V domains shown)
VH: EVQLLESGGGLVQPGGSLRLSCAASGFTFSNAWMSWVRQAPGKGLEWVAFIWYDGSNKYYADSVKGRFTISRDNSKNTLYLQMNSLRAEDTAVYYCARYSGWYFDYWGQGTLVTVSS
VL: QSVLTQPPSASGTPGQRVTISCTGSSSNIGAGYDVHWYQQLPGTAPKLLIYDNNNRPSGVPDRFSGSKSGTSASLAISGLRSEDEADYYCQSYDSSLSAWLFGGGTKLTVLG
modifications: B11 VH region; B11 VL region
For B1, the “PCD induction in normal endothelial cells” value [1] was “did not, however, induce PCD”, the “binding to murine FcγRIV” value (mouse FcγRIV) was “strong binding” and the “induction of CDC” value [2] was “did not induce CDC”. The “In vivo IgG Levels (serum antibody titers)” value (from here on “In vivo IgG Levels”) ([3]; dose 0.02 mg/kg) was 0.06 ± 0.02 µg/mL, the “In vivo IgG Levels” value ([3]; dose 0.2 mg/kg) was 1.2 ± 0.4 µg/mL and the “In vivo IgG Levels” value ([3]; dose 2 mg/kg) was 20 ± 2.9 µg/mL. For the same molecule, the animal survival (ARH-77 cells) was “increased mean survival time”, the “time to symptomatic disease onset” value (ARH-77 cells) was “doubled” and the “CDC of normal cells” value [4] was “did not confer ADCC or CDC”.
